Results published in PMC10343800, “A Novel LSTM-Based Machine Learning Model for Predicting the Activity of Food Protein-Derived Antihypertensive Peptides” (Molecules, 2023).
pIC50: −log10 of the molar value. Ends that are not written are not given here. Peptide text beside a SMILES is read from it.

target: T1, ACE (Homo sapiens, UniProt P12821); assay: biochemical; conditions: not given
Experimental: An online tool (https://www.genscript.com/sms2/random_protein.html accessed on 1 March 2023) was used to randomly generate peptides in order to test the efficiency of the model. The top peptides with a small number of IC50 values were selected for synthesis. […] The peptides used for validation were synthesized by Genescript with a purity > 97%. The ACE inhibitory assay was performed according to a previous study with modifications. ACE, N-hippuryl-His-Leu tetrahydrate (HHL, Sigma-Aldrich, St. Louis, MI, USA) and the peptide samples were dissolved in 100 mM of boric acid containing 300 mM of NaCl (pH8.3). Firstly, 10 μL of the peptide solution was preincubated with 50 μL of 6.5 mM HHL at 37 °C for 5 min. Then, 5 μL of 0.1UN/mL ACE (preincubated at 37 °C) was added to the reaction system and incubated at 37 °C for another 30 min. The reaction was terminated by adding 85 μL of 1 M HCl. The concentration of hippuric acid (Hip, the reaction product) was measured by HPLC with a C18 column (5 µm, 250 mm × 4.6 mm). The sample (20 μL) was eluted by a gradient of solvent A (H2O with 0.05% TFA) and solvent B (acetonitrile with 0.05% TFA) at a flow rate of 1.2 mL/min. The absorbance at 228 nm was monitored. The concentration of HA was calculated based on its standard curve. The area under each peak was calculated, in which A = the area under the peak of the blank group (without the peptide) and B = the area under the peak of the peptide group. The ACE inhibitory ratio = (A − B)/A. The ACE inhibitory ratio of each peptide at different concentrations was measured.

T1 sequence (P12821 30-1306, species assumed): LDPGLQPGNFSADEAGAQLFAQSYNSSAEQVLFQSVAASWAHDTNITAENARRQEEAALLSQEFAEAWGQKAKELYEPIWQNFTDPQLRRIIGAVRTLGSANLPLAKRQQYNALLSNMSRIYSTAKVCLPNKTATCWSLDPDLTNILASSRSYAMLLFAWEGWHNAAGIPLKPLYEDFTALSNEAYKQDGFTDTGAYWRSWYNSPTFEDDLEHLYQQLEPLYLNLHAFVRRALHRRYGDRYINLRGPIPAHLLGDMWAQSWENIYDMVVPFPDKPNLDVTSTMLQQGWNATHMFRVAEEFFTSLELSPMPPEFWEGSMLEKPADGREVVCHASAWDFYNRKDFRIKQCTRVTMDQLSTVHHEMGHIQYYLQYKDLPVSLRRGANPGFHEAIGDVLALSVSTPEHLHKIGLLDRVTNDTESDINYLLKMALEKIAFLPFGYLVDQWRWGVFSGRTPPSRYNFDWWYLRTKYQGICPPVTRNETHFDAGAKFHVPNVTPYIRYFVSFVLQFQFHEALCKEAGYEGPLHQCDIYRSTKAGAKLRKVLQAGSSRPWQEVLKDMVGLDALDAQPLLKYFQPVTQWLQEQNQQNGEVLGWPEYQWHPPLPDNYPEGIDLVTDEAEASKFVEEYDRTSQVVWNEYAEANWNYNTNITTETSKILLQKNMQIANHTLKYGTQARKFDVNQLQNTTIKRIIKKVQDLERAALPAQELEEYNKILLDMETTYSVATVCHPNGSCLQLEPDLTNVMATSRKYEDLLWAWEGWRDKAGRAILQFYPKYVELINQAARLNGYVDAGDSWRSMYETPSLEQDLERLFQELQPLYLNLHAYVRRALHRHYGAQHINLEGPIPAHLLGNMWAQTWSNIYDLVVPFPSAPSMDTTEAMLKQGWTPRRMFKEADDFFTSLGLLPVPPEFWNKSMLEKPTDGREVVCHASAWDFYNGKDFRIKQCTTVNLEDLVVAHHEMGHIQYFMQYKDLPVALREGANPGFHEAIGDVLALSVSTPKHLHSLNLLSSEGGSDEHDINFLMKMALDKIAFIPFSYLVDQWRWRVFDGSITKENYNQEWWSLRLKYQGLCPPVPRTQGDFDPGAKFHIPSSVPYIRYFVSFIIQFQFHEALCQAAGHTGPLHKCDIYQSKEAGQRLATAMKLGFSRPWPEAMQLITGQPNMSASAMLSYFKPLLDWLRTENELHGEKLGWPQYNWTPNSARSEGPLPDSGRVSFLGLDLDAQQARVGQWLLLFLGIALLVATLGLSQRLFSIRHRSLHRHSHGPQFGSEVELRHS

Compound | pIC50
C[C@H](NC(=O)[C@@H]1CCCN1C(=O)CN)C(=O)N[C@@H](Cc1ccc(O)cc1)C(=O)O [GPAY] (H-GPAY-OH) | 6.43
LKPNS [LKPNS] | 6.30
CC(C)C[C@H](NC(=O)[C@H](C)N)C(=O)N1CCC[C@H]1C(=O)N[C@@H](CC(=O)O)C(=O)O [ALPD] (H-ALPD-OH) | 5.81
CC(C)[C@H](NC(=O)CN)C(=O)N1CCC[C@H]1C(=O)N[C@@H](CCCCN)C(=O)O [GVPK] (H-GVPK-OH) | 6.60
CC(C)C[C@H](NC(=O)[C@@H](NC(=O)[C@@H](N)CC(C)C)C(C)C)C(=O)O [LVL] (H-Leu-Val-Leu-OH) | 6.49
VYHEL [VYHEL] | 6.42
VHLAP [VHLAP] | 6.48
KLPAY [KLPAY] | 6.92
PDFLI [PDFLI] | 6.48
LKPDQ [LKPDQ] | 6.06
VAWKL [VAWKL] | 6.64
FALPC [FALPC] | 6.80
CC[C@H](C)[C@H](NC(=O)[C@@H]1CCCN1C(=O)[C@H](CCCCN)NC(=O)[C@@H](N)CC(C)C)C(=O)O [LKPI] (H-LKPI-OH) | 6.41
IQWCA [IQWCA] | 7.00
C[C@H](NC(=O)[C@H](CCCCN)NC(=O)[C@H](CC(=O)O)NC(=O)[C@@H](N)Cc1ccccc1)C(=O)O [FDKA] (H-FDKA-OH) | 6.22
CC[C@H](C)[C@H](NC(=O)[C@@H](N)Cc1ccccc1)C(=O)O [FI] (H-Phe-Ile-OH) | 6.51
N=C(N)NCCC[C@H](NC(=O)[C@H](Cc1c[nH]cn1)NC(=O)[C@H](CC(=O)O)NC(=O)[C@@H](N)Cc1c[nH]cn1)C(=O)O [HDHR] (H-HDHR-OH) | 6.23
PLPLL [PLPLL] | 6.70

same assay, conditions: 6.5 mM HHL, 0.1 UN/mL ACE, 100 mM boric acid with 300 mM NaCl pH 8.3, 37 °C, 5 min preincubation, 30 min incubation; hippuric acid by HPLC C18, 228 nm; read-out: Experimental IC50

pIC50 | Compound
6.29 | N[C@@H](Cc1c[nH]c2ccccc12)C(=O)N[C@@H](CC(=O)O)C(=O)O [WD] (H-Trp-Asp-OH)
6.25 | CC(C)C[C@H](NC(=O)[C@H](CCCCN)NC(=O)[C@@H](N)CC(C)C)C(=O)O [LKL] (H-Leu-Lys-Leu-OH)

target: T1, ACE; assay: not given; conditions: in vitro ACE inhibition; read-out: Reported IC50; cited from earlier work

Compound | pIC50
LDSPSEGRAPG | 4.75
LLVTLKK | 6.02
HLNVVHGN | 4.29
DAQSAPLRVY | 4.91
CTFSIPAQC | 4.61
KIDKVVK | 6.21
PGSGCAGTDL | 4.24
ILSKLK | 5.40
LRLESF | 5.27
LEEFCC | 5.73
GAAELPCSADWW | 4.96
VISDEDGVTH | 5.09
DKVGINYW | 4.60
VDSDVVK | 5.06
IISKIK | 5.92
TVTNPARIA | 4.84
PAGELHP | 6.30
RDGGYCC | 6.08
LVLPGE | 4.87
TFQGGlPPHGIQVER (TFQGGPPHGIQVER) | 5.47
AFVGYVLP | 4.84
LVLPGELAK | 3.74
IPPAYTK | 4.63
KGYGGVSLPEW | 6.15
MLPAY | 5.80
WQVLPNAVPAK | 3.00
EKSYELP | 4.74
VELYP | 5.28
